From paper PMC4216633 (Journal of nuclear medicine : official publication, Society …, 2014)

Key:
thrombus = assay: Ex vivo biodistribution in rat model of arterial thrombosis; conditions: rat carotid crush thrombosis
[1] = rat, in vivo, iv
[2] = rat, in vivo

| Substance | uptake at the target site (thrombus), persisted over 5h (thrombus) | elimination half-life of the intact probe in blood [1] | intact probe in blood at 4h post-injection [2] |
| --- | --- | --- | --- |
| FHCHypY(3-Cl)DLCHIL-PXD (disulfide) [FBP9] | 0.5–0.8 % ID/g | 17.9 ± 5.8 min | > 85% |
| FHCHypY(3-Cl)DLCHIL-PXD (disulfide) [FBP8] | 0.5–0.8 % ID/g | 13.8 ± 3.8 min | > 85% |
